# Measurements published in article PMC11073785, “YeeD is an essential partner for YeeE-mediated thiosulfate uptake in bacteria and regulates thiosulfate ion decomposition” (PLOS Biology, 2024).
# T1: StYeeD (Winmispira thermophila, UniProt G0GAP7)
# T1 construct: gene Spith_0735; expressed in E. coli C41(DE3)
# T1 sequence (G0GAP7 1-80): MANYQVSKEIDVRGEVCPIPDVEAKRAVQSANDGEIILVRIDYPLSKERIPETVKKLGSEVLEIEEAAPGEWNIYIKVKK
# T2: Spirochaeta thermophila YeeE (Spirochaeta thermophila, UniProt G0GAP6 1-328)
# T2 construct: YeeE of Spirochaeta thermophila, residues 1-328, UniProt G0GAP6; Membrane protein, kept in 0.1% DDM; The His tag was removed with TEV(S219V) protease; also called StYeeE; TsuA; source: E. coli C41(DE3), purified from the membrane fraction in DDM (Ni-NTA, TEV cleavage, Superdex 200)
# T2 sequence (looked up): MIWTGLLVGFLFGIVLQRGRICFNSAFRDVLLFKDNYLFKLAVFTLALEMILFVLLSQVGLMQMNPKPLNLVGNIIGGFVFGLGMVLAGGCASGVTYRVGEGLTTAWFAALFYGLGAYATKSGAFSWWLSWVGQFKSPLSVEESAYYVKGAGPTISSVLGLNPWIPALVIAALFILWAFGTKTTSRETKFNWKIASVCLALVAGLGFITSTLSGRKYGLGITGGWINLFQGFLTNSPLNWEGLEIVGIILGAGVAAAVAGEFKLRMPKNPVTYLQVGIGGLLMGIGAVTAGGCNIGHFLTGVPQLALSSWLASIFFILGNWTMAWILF
# B1: StYeeE (Winmispira thermophila DSM 6578) (protein)
# chain: MIWTGLLVGFLFGIVLQRGRICFNSAFRDVLLFKDNYLFKLAVFTLALEMILFVLLSQVGLMQMNPKPLNLVGNIIGGFVFGLGMVLAGGCASGVTYRVGEGLTTAWFAALFYGLGAYATKSGAFSWWLSWVGQFKSPLSVEESAYYVKGAGPTISSVLGLNPWIPALVIAALFILWAFGTKTTSRETKFNWKIASVCLALVAGLGFITSTLSGRKYGLGITGGWINLFQGFLTNSPLNWEGLEIVGIILGAGVAAAVAGEFKLRMPKNPVTYLQVGIGGLLMGIGAVTAGGCNIGHFLTGVPQLALSSWLASIFFILGNWTMAWILF
# notes: 1-328 aa with C-terminal …-His8, His-tag removed by TEV; expressed in E. coli C41(DE3), purified in DDM, reconstituted in E. coli total lipid liposomes
# B2: Spirochaeta thermophila YeeD (WT), His6-tagged (natural protein, UniProt G0GAP7 1-80, looked up)
# chain: MANYQVSKEIDVRGEVCPIPDVEAKRAVQSANDGEIILVRIDYPLSKERIPETVKKLGSEVLEIEEAAPGEWNIYIKVKK
# notes: YeeD of Spirochaeta thermophila, residues 1-80, UniProt G0GAP7; 11.3 kDa with the tag; As purified, C17 is partly modified (mass spectrometry: -SH, -S-O2-/-S-S-, -S-SO3-); also called StYeeD; StYeeD(WT); source: E. coli C41(DE3), purified (Ni-NTA, Superdex 200)
# B3: StYeeD(R49A), His6-tagged (natural protein, Spirochaeta thermophila, UniProt G0GAP7 1-80, looked up)
# chain: MANYQVSKEIDVRGEVCPIPDVEAKRAVQSANDGEIILVRIDYPLSKEAIPETVKKLGSEVLEIEEAAPGEWNIYIKVKK
# notes: YeeD of Spirochaeta thermophila, residues 1-80, UniProt G0GAP7, with R49A; source: E. coli C41(DE3), purified (Ni-NTA, Superdex 200)
# B4: StYeeD(Y43A), His6-tagged (natural protein, Spirochaeta thermophila, UniProt G0GAP7 1-80, looked up)
# chain: MANYQVSKEIDVRGEVCPIPDVEAKRAVQSANDGEIILVRIDAPLSKERIPETVKKLGSEVLEIEEAAPGEWNIYIKVKK
# notes: YeeD of Spirochaeta thermophila, residues 1-80, UniProt G0GAP7, with Y43A; source: E. coli C41(DE3), purified (Ni-NTA, Superdex 200)
# B5: StYeeD(V16A), His6-tagged (natural protein, Spirochaeta thermophila, UniProt G0GAP7 1-80, looked up)
# chain: MANYQVSKEIDVRGEACPIPDVEAKRAVQSANDGEIILVRIDYPLSKERIPETVKKLGSEVLEIEEAAPGEWNIYIKVKK
# notes: YeeD of Spirochaeta thermophila, residues 1-80, UniProt G0GAP7, with V16A; source: E. coli C41(DE3), purified (Ni-NTA, Superdex 200)
# B6: StYeeD(E48A), His6-tagged (natural protein, Spirochaeta thermophila, UniProt G0GAP7 1-80, looked up)
# chain: MANYQVSKEIDVRGEVCPIPDVEAKRAVQSANDGEIILVRIDYPLSKARIPETVKKLGSEVLEIEEAAPGEWNIYIKVKK
# notes: YeeD of Spirochaeta thermophila, residues 1-80, UniProt G0GAP7, with E48A; source: E. coli C41(DE3), purified (Ni-NTA, Superdex 200)
# B7: StYeeD(L38A), His6-tagged (natural protein, Spirochaeta thermophila, UniProt G0GAP7 1-80, looked up)
# chain: MANYQVSKEIDVRGEVCPIPDVEAKRAVQSANDGEIIAVRIDYPLSKERIPETVKKLGSEVLEIEEAAPGEWNIYIKVKK
# notes: YeeD of Spirochaeta thermophila, residues 1-80, UniProt G0GAP7, with L38A; source: E. coli C41(DE3), purified (Ni-NTA, Superdex 200)
# B8: StYeeD(K8A), His6-tagged (natural protein, Spirochaeta thermophila, UniProt G0GAP7 1-80, looked up)
# chain: MANYQVSAEIDVRGEVCPIPDVEAKRAVQSANDGEIILVRIDYPLSKERIPETVKKLGSEVLEIEEAAPGEWNIYIKVKK
# notes: YeeD of Spirochaeta thermophila, residues 1-80, UniProt G0GAP7, with K8A; source: E. coli C41(DE3), purified (Ni-NTA, Superdex 200)
# B9: StYeeD(E15A), His6-tagged (natural protein, Spirochaeta thermophila, UniProt G0GAP7 1-80, looked up)
# chain: MANYQVSKEIDVRGAVCPIPDVEAKRAVQSANDGEIILVRIDYPLSKERIPETVKKLGSEVLEIEEAAPGEWNIYIKVKK
# notes: YeeD of Spirochaeta thermophila, residues 1-80, UniProt G0GAP7, with E15A; source: E. coli C41(DE3), purified (Ni-NTA, Superdex 200)
# B10: StYeeD(E63A), His6-tagged (natural protein, Spirochaeta thermophila, UniProt G0GAP7 1-80, looked up)
# chain: MANYQVSKEIDVRGEVCPIPDVEAKRAVQSANDGEIILVRIDYPLSKERIPETVKKLGSEVLAIEEAAPGEWNIYIKVKK
# notes: YeeD of Spirochaeta thermophila, residues 1-80, UniProt G0GAP7, with E63A; source: E. coli C41(DE3), purified (Ni-NTA, Superdex 200)
# B11: StYeeD(L45A), His6-tagged (natural protein, Spirochaeta thermophila, UniProt G0GAP7 1-80, looked up)
# chain: MANYQVSKEIDVRGEVCPIPDVEAKRAVQSANDGEIILVRIDYPASKERIPETVKKLGSEVLEIEEAAPGEWNIYIKVKK
# notes: YeeD of Spirochaeta thermophila, residues 1-80, UniProt G0GAP7, with L45A; source: E. coli C41(DE3), purified (Ni-NTA, Superdex 200)
# B12: StYeeD(V39A), His6-tagged (natural protein, Spirochaeta thermophila, UniProt G0GAP7 1-80, looked up)
# chain: MANYQVSKEIDVRGEVCPIPDVEAKRAVQSANDGEIILARIDYPLSKERIPETVKKLGSEVLEIEEAAPGEWNIYIKVKK
# notes: YeeD of Spirochaeta thermophila, residues 1-80, UniProt G0GAP7, with V39A; source: E. coli C41(DE3), purified (Ni-NTA, Superdex 200)
# B13: StYeeD(E9A), His6-tagged (natural protein, Spirochaeta thermophila, UniProt G0GAP7 1-80, looked up)
# chain: MANYQVSKAIDVRGEVCPIPDVEAKRAVQSANDGEIILVRIDYPLSKERIPETVKKLGSEVLEIEEAAPGEWNIYIKVKK
# notes: YeeD of Spirochaeta thermophila, residues 1-80, UniProt G0GAP7, with E9A; source: E. coli C41(DE3), purified (Ni-NTA, Superdex 200)
# Target: T1, StYeeD
# Experiment: H2S release with fluorescent probe HSip-1; adduct by MALDI-TOF MS
# Type: biochemical
# Details: 500 μM thiosulfate, 24.1 μM YeeD, 70 μM β-ME, pH 8.0, 37°C; covalent (C17)
row,Molecule,H2S release with fluorescent probe HSip-1; adduct by MALDI-TOF MS
1,O=S(O)(O)=S [thiosulfate ion],suggesting that YeeD catalyzes the decomposition of thiosulfate as a substrate

# Substrate: O=S(O)(O)=S
# Experiment: solid-supported membrane electrophysiology of proteoliposomes, negative peak area
# Type: biochemical, Winmispira thermophila
# Details: transport, Na2S2O3 1.25-40 mM exchanged against equal Na2SO4, pH 6.7, Michaelis-Menten fit
row,Molecule,Km [µM]
1,B1,626.1

# Target: T2, Spirochaeta thermophila YeeE
# Experiment: BLI; StYeeD-His6 (4.82 μM) loaded on a Ni-NTA biosensor, 11.05 μM StYeeE in solution; Octet N1, room temperature; 20 mM Tris-HCl pH 8.0, 300 mM NaCl, 0.1% DDM, 1 mM β-ME; 120 s association, 120 s dissociation; local fitting; 3 measurements. WT was also run with 300 mM Na2SO4 (binding similar) or 300 mM Na2S2O3 (binding significantly decreased)
# Details: both partners purified
Molecule,Kd [µM],koff [s⁻¹],kon [M⁻¹ s⁻¹]
B2,1.6 ± 0.2,0.027 ± 0.0029,17000 ± 2900
B3,17 ± 23,0.12 ± 0.16,9000 ± 1400
B4,20 ± 2.1,0.16 ± 0.017,8200 ± 950
B5,5.6 ± 0.86,0.093 ± 0.023,17000 ± 1600
B6,4.5 ± 6.2,0.14 ± 0.2,17000 ± 10000
B7,1.7 ± 0.055,0.032 ± 0.003,18000 ± 1300
B8,4.3 ± 0.61,0.037 ± 0.0019,8900 ± 1100
B9,9.5 ± 4.2,0.071 ± 0.033,7500 ± 1300
B10,1.7 ± 0.074,0.03 ± 0.0013,18000 ± 260
B11,1.2 ± 0.1,0.035 ± 0.004,29000 ± 1600
B12,5.4 ± 0.3,0.032 ± 0.00058,5800 ± 330
B13,4.6 ± 0.22,0.027 ± 0.0021,6000 ± 580

# Target: the molecule itself
# Experiment: SEC; purified His-tagged StYeeD(WT) on Superdex 200 Increase 10/300 GL, 10 mM Tris-HCl pH 8.0, 300 mM NaCl; two peaks compared with gel filtration markers
# Details: not given
row,Molecule,stoichiometry N
1,B2,2
